# Fewer inactive variants are shown than the library holds.
# Key:
# biotinyl-Phe-oxazolone = test: self-aminoacylation, catalytic enhancement (BFO) (fold over background); higher = more active; k-Seq, kA / k0A0; sequences stand for … in GGGAAUGGAUCCACAUCUACGAAUUC…UUCACUGCAGACUUGACGAAGCUG
# Procedure, shortened: (§1)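 The uncatalyzed rate is the low-activity peak of a bimodal Gaussian fit, and catalytic enhancement is median kA divided by it. The kA values came from pseudo-first-order fits, with 1000 bootstraps, of per-sequence fraction reacted measured by streptavidin capture, triplicate qPCR and Illumina sequencing. Mutagenized RNA pools with a 21-nt variable region (0.43 μM) were reacted with each biotinyl-aminoacyl-oxazolone at 2–1250 μM in 50 μL HEPES/NaCl/KCl/MgCl2/CaCl2 buffer with 5% acetonitrile, pH 6.9–7.0, for 90 minutes at room temperature.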
# biotinyl-Ile-oxazolone = test: self-aminoacylation, catalytic enhancement (BIO) (fold over background); higher = more active; k-Seq, kA / k0A0; sequences stand for … in GGGAAUGGAUCCACAUCUACGAAUUC…UUCACUGCAGACUUGACGAAGCUG
# Procedure, shortened: as §1
# biotinyl-Met-oxazolone = test: self-aminoacylation, catalytic enhancement (BMO) (fold over background); higher = more active; k-Seq, kA / k0A0; sequences stand for … in GGGAAUGGAUCCACAUCUACGAAUUC…UUCACUGCAGACUUGACGAAGCUG
# Procedure, shortened: as §1
# biotinyl-Val-oxazolone = test: self-aminoacylation, catalytic enhancement (BVO) (fold over background); higher = more active; k-Seq, kA / k0A0; sequences stand for … in GGGAAUGGAUCCACAUCUACGAAUUC…UUCACUGCAGACUUGACGAAGCUG
# Procedure, shortened: as §1
# biotinyl-Leu-oxazolone = test: self-aminoacylation, catalytic enhancement (BLO) (fold over background); higher = more active; k-Seq, kA / k0A0; sequences stand for … in GGGAAUGGAUCCACAUCUACGAAUUC…UUCACUGCAGACUUGACGAAGCUG
# Procedure, shortened: as §1
# biotinyl-Trp-oxazolone = test: self-aminoacylation, catalytic enhancement (BWO) (fold over background); higher = more active; k-Seq, kA / k0A0; sequences stand for … in GGGAAUGGAUCCACAUCUACGAAUUC…UUCACUGCAGACUUGACGAAGCUG
# Procedure, shortened: as §1
Sequence,self-aminoacylation (biotinyl-Phe-oxazolone),self-aminoacylation (biotinyl-Ile-oxazolone),self-aminoacylation (biotinyl-Met-oxazolone),self-aminoacylation (biotinyl-Val-oxazolone),self-aminoacylation (biotinyl-Leu-oxazolone),self-aminoacylation (biotinyl-Trp-oxazolone)
AUUCACCUAGGUCAUGUGGUG [Fam2.2 aminoacylation ribozyme variant],20,2.18,2.95,2.1,3.91,2.98
AUUCACCUAGGUCAUUGGGAG [Fam2.2 aminoacylation ribozyme variant],0.946,1.15,1.05,0.991,1.07,1.16
AUUCACCUAGGUCCACGGGUG [Fam2.2 aminoacylation ribozyme variant],48.5,3.85,7.25,4.27,9.94,6.34
AUUCACCUAGGUCCUCGGAUG [Fam2.2 aminoacylation ribozyme variant],0.427,0.964,0.966,0.89,1.07,0.587
AUUCACCUAGGUCCUCGGGGG [Fam2.2 aminoacylation ribozyme variant],9.54,2.8,2.98,2.85,2.98,2.42
AUUCACCUAGGUCCUCGGGUG [Fam2.2 aminoacylation ribozyme variant],30.2,3.08,4.59,3.13,5.91,4.22
AUUCACCUAGGUCCUCGGGUU [Fam2.2 aminoacylation ribozyme variant],8.53,1.8,2.22,2.06,2.45,2.48
AUUCACCUAGGUCCUUGGGUG [Fam2.2 aminoacylation ribozyme variant],31.7,2.7,4.11,2.51,5.09,3.42
AUUCACCUAGGUCGUCGGCUG [Fam2.2 aminoacylation ribozyme variant],4.94,1.62,2.16,1.97,2.55,1.63
AUUCACCUAGGUCUGCGGGUG [Fam2.2 aminoacylation ribozyme variant],12.8,3.08,4.69,2.58,4.85,3.44
AUUCACCUAGGUGACCGGGUG [Fam2.2 aminoacylation ribozyme variant],23,4.8,3.84,4.19,5.29,6.82
AUUCACCUAGGUGAUCGGCUG [Fam2.2 aminoacylation ribozyme variant],9.04,1.77,1.74,1.66,1.98,1.67
AUUCACCUAGGUGAUCGGGUU [Fam2.2 aminoacylation ribozyme variant],9.06,1.85,1.89,1.88,2.59,1.06
AUUCACCUAGGUGAUCGGUUG [Fam2.2 aminoacylation ribozyme variant],3.17,0.875,0.928,0.921,0.93,1.03
AUUCACCUAGGUUAGCGGGUG [Fam2.2 aminoacylation ribozyme variant],19.7,2.55,2.98,2.22,2.9,3.43
AUUCACCUAGGUUAUCGCGUG [Fam2.2 aminoacylation ribozyme variant],20.7,2.09,3.16,2.64,3.29,3.11
AUUCACCUAGGUUAUCGGCUG [Fam2.2 aminoacylation ribozyme variant],4.24,1.45,1.73,1.57,1.79,1.44
AUUCACCUAGGUUAUCGGGUA [Fam2.2 aminoacylation ribozyme variant],13.3,2.02,2.55,2.49,3.54,3.37
AUUCACCUAGUUCAUCGAGUG [Fam2.2 aminoacylation ribozyme variant],1.17,0.949,1.21,1.04,1.31,1.25
AUUCACCUAGUUCAUCGGGCG [Fam2.2 aminoacylation ribozyme variant],5.7,1.95,2.19,1.93,1.96,2.88
AUUCACCUAUGUCAUCGGGGG [Fam2.2 aminoacylation ribozyme variant],6.23,1.5,2,1.38,1.93,1.58
AUUCACCUAUGUCAUCGGGUA [Fam2.2 aminoacylation ribozyme variant],1.14,1.55,1.96,1.79,2.41,1.89

Sequence,self-aminoacylation (biotinyl-Phe-oxazolone),self-aminoacylation (biotinyl-Ile-oxazolone),self-aminoacylation (biotinyl-Met-oxazolone),self-aminoacylation (biotinyl-Val-oxazolone),self-aminoacylation (biotinyl-Leu-oxazolone),self-aminoacylation (biotinyl-Trp-oxazolone)
AUUCACCUCGGUCAUCGGGCG [Fam2.2 aminoacylation ribozyme variant],19.5,2.49,3.37,3.43,3.62,2.32
AUUCACCUCGGUCAUCGGGUG [Fam2.2 aminoacylation ribozyme variant],53.6,4.59,7.69,5.15,9.64,7.49
AUUCACCUCGGUCAUCUGGUG [Fam2.2 aminoacylation ribozyme variant],29.2,2.17,3.29,2.16,4.16,3.2
AUUCACCUCGGUCGUCGGGUG [Fam2.2 aminoacylation ribozyme variant],11.4,2.42,2.41,3.12,2.85,2.53
AUUCACCUCGUUCAUCGGGUG [Fam2.2 aminoacylation ribozyme variant],26.3,2.93,4.1,3.3,5.48,5
AUUCACCUGGGACAUCGGGUG [Fam2.2 aminoacylation ribozyme variant],55.4,4.15,7.06,4.3,6.71,5.11
AUUCACCUGGGCCAUCGGGUG [Fam2.2 aminoacylation ribozyme variant],35.7,4.03,6.2,5.03,6.53,4.74
AUUCACCUGGGUCAACGGGUG [Fam2.2 aminoacylation ribozyme variant],22.8,2.41,3.9,2.56,4.25,3.21
AUUCACCUGGGUCACCGGGUG [Fam2.2 aminoacylation ribozyme variant],22.4,3.43,4.54,2.97,5.41,5.36
AUUCACCUGGGUCAGCGGGUG [Fam2.2 aminoacylation ribozyme variant],36.7,4.33,5.26,4.26,6.66,4.72
AUUCACCUGGGUCAUCGGGGG [Fam2.2 aminoacylation ribozyme variant],21.4,4.25,4.26,4.1,5.65,3.71
AUUCACCUGGGUCAUCGGGUG [Fam2.2 aminoacylation ribozyme variant],67.8,8.95,20.2,10.4,23.2,18.2
AUUCACCUGGGUCAUCGGGUU [Fam2.2 aminoacylation ribozyme variant],17.4,4.39,6.89,5.13,9.06,7.09
AUUCACCUGGGUCAUCGGUUG [Fam2.2 aminoacylation ribozyme variant],3.76,1.25,0.904,1.44,1.4,1.62
AUUCACCUGGGUCAUCUGGUG [Fam2.2 aminoacylation ribozyme variant],21,2.18,2.83,2,3.46,2.99
AUUCACCUGUGUCAUCGGGUG [Fam2.2 aminoacylation ribozyme variant],28.1,5.71,10.8,6.51,15.7,8.96
AUUCACCUUGGUCAUAGGGUG [Fam2.2 aminoacylation ribozyme variant],1.15,0.995,1.21,1.16,1.59,1.05
AUUCACCUUGGUCAUCGGUUG [Fam2.2 aminoacylation ribozyme variant],0.347,0.9,0.844,1.06,0.855,0.806
AUUCACCUUGGUGAUCGGGUG [Fam2.2 aminoacylation ribozyme variant],23.8,3.1,3.12,3.7,4.24,5.35
AUUCACGAAGGUCAUCGGGUG [Fam2.2 aminoacylation ribozyme variant],89.6,5.12,10.5,6.74,11.3,8.81
AUUCACGGAGGUCAUCGGGUG [Fam2.2 aminoacylation ribozyme variant],65.1,4.28,7.36,6.35,9.33,7.23

# From the supplement of paper PMC9233669
